The text below walks through data of the supplement of paper PMC12042874.

± gives the uncertainty stated by the source.

This series in a line: amyloid nucleation score (Sup35N fusion, yeast selection) (log enrichment); library NNK2; higher = more nucleation; inactive = no reads after selection. A digest of the protocol:
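Using DiMSum, nucleation scores were taken as the log enrichment of output over input reads, centred on the mode score of non-aggregating sequences. The input and output reads came from Illumina sequencing of plasmid inserts, with sequences under 100 input reads excluded. The yeast were psi-negative, expressed Sup35N fused to peptides of 20 random codons, were induced with 100 μM copper sulfate for 24 hours, and were grown 7 days at 30°C on medium lacking adenine and uracil.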
Consider SLLTCLSGMHGWVSIT, for which the amyloid nucleation score was -0.13 ± 0.27. Turning to SLMIHGHLFRIRVRSLRGRI, the amyloid nucleation score was -0.714 ± 0.76. SLNAL had an amyloid nucleation score of -0.296 ± 0.49. Under SLNFFIMSKSSTGVSSFLYV stands 6.483 ± 0.038; under SLNNIRLLTHYLDFGVRNLA, 3.04 ± 0.092; under SLPAENSFIEF, -1.25 ± 0.39. SLQSDQSADFREDKGRSKAE came in with an amyloid nucleation score of 0.898 ± 0.32. SLSCGLYGYMTNSCSYVHRT registered an amyloid nucleation score of 4.22 ± 0.053. On to SLSLQGLSFMPFCGRSGSVV, for which the amyloid nucleation score entry was “inactive”. With SLSRRQLTIPPVTTRVIQSH the figure was 0.637 ± 0.25. In turn, SLTMYGSIEWLNNVSAILRH showed an amyloid nucleation score of 0.541 ± 0.66. Take SLTYRYVHVLC: the amyloid nucleation score amounted to 5.86 ± 0.04. Substance SLWVYLVKMVEIFSLKD gave an amyloid nucleation score of -0.531 ± 0.55. As for SLYFVWSCLLGILKVMPTFN, the amyloid nucleation score was -1.18 ± 0.64. Take SMKNK: the amyloid nucleation score came out at 0.185 ± 0.4. As for SMLLVAFWWKGGWTRISPCQ, the amyloid nucleation score turned out to be 0.762 ± 0.23. SMQLDSFCVICGWFALVGLV returned an amyloid nucleation score of 6.67 ± 0.052. Take SMSSTSFSQWSMAWLEGRMA: the amyloid nucleation score was 2.93 ± 0.078. On to SMSYDRWKAKS, for which the amyloid nucleation score is -0.446 ± 0.48. SMYSYHHSYRSDTKTSNFFW gave an amyloid nucleation score of 3.4 ± 0.072. SNCRLGKGYYNCF showed an amyloid nucleation score of -0.833 ± 0.41. Substance SNCSKCVKVYTSPCLWSLCG had an amyloid nucleation score of 3.46 ± 0.083.

Turning to SNCYLKRSYGFRDIITKIRY, the amyloid nucleation score was found to be 1.24 ± 0.14.

On to SNEIQNII, for which the amyloid nucleation score was 0.57 ± 0.81. With SNGVAWQCNGNSYRIFCDTS, the amyloid nucleation score was found to be 7.522 ± 0.069. With SNLMISTCEQMGRCVGDDAV the figure was -0.067 ± 0.36; with SNLNPVHSDLLMYEMPCNLT, -0.492 ± 1.1. As to SNMNNPRHLCAKLSKRQMSY, the amyloid nucleation score entry is “inactive”.

As to SNNFFNGMICSLFAGGC, the amyloid nucleation score amounted to 7.55 ± 0.082. With SNRLRVVQ the figure was -0.069 ± 0.32; with SNVRWKRGYGDNTILGGSLT, 1.51 ± 0.31; with SNYLAPYNNSDATYCG, -0.361 ± 0.54. The substance SNYSPGFLCWALESSTNM had an amyloid nucleation score of -0.99 ± 1.1. In the case of SPAWRNGDPRKKATPTHTGI, the amyloid nucleation score stood at 0.004 ± 1.1. The substance SPDRPPSVVVVDRSGDVMVC returned an amyloid nucleation score of 1.57 ± 0.15. As to SPLASYIAVLWGNVR, the amyloid nucleation score was -0.515 ± 1.1.

Turning to SPLRALLTHVWRKQHTYFSN, the amyloid nucleation score was found to be 3.14 ± 0.08. As to SPVICRVRGGLFINMSEYNV, the amyloid nucleation score entry was “inactive”. In the case of SPVVKFRLLQSINLTHCY, the amyloid nucleation score was found to be 4.47 ± 0.05.

Substance SPWVNYYPSRVYRNVNACLF displayed an amyloid nucleation score of -0.339 ± 0.35. Substance SQCARKYVVASVSMLTDVTH came in with an amyloid nucleation score of 1.13 ± 0.31.

Substance SQHSRHRRQSVVYYAVDGVE gave an amyloid nucleation score of 1.21 ± 0.31. Turning to SQMSGSFRRSNGWIAV, the amyloid nucleation score result is “inactive”. Under SQNETFFKMCVELN stands 0.165 ± 0.54; under SQRLIRWNCLNAGTIMPSVV, 0.089 ± 1.1. As for SQVERVQFTGIRKWYGAGRS, the amyloid nucleation score was found to be 4.57 ± 0.072. As for SQVTISHSNEHMVGACAVYR, the amyloid nucleation score was -0.456 ± 0.54. Take SQWSCVRTSFGPPMYKWFDL: the amyloid nucleation score stood at 5.655 ± 0.045. In the case of SRAAPDINS, the amyloid nucleation score turned out to be 0.251 ± 0.25. Consider SRACVLWKGLRRAANTC, for which the amyloid nucleation score is 0.984 ± 0.27. SRCEVNTWLLILSGGITPMN: the amyloid nucleation score was 0.722 ± 0.37.

The substance SRDVLVLIGYFSCGVIDSAL had an amyloid nucleation score of 5.16 ± 0.082.

The substance SREVFDVLGKFFCSPQDRVV displayed an amyloid nucleation score of 0.294 ± 0.8. SRFIAWSFT gave an amyloid nucleation score of -0.038 ± 1.1. On to SRFVLRFSRGLEGRTSSDMR, for which the amyloid nucleation score was determined as 0.294 ± 0.42. For SRICIFDDCNRRLARYWGLR, the amyloid nucleation score was found to be 0.057 ± 0.76. SRIFVLYYSWDAWNSWGDVV displayed an amyloid nucleation score of 0.602 ± 0.6. For SRIGLYIKCVVLDWRELNLS, the amyloid nucleation score came out at 0.206 ± 0.55.

As for SRKFSFAYFTRFFYVLVLIV, the amyloid nucleation score result is “inactive”. For SRKNRSRVSTTISR, the amyloid nucleation score is -0.731 ± 0.3.

The substance SRKPNQINNRSRNSMLGARR registered an amyloid nucleation score of -0.162 ± 0.27. With SRKTIVGFYGVPGVRYACIW, the amyloid nucleation score result is “inactive”. As to SRLNNLRYLYYLTGFRSLMT, the amyloid nucleation score result was “inactive”. With SRMAWYFLLGYHLMMEKVHL, the amyloid nucleation score entry was “inactive”.

In turn, SRMRVLFALLQDFQSHVGSV had an amyloid nucleation score of 1.36 ± 0.11. Regarding SRNFVPVHRCVGGF, the amyloid nucleation score entry was “inactive”. Regarding SRQRVMLLC, the amyloid nucleation score result is “inactive”. With SRTRCDIWFNLRTFMVRVRK the figure was -0.46 ± 1.1; with SRVTYMRATDSMTTVVFWGV, 5.31 ± 0.064; with SSAGC, -1.23 ± 0.55. With SSASTRDEKGGSGALERERC the figure was -0.243 ± 1.1. SSFFLTQSKSFGYA: the amyloid nucleation score result was “inactive”. SSFSIMLCGGVIFCIVAN: the amyloid nucleation score is 5.02 ± 0.078. For the substance SSGFQNSSTNGTDAQS, the amyloid nucleation score was 0.101 ± 0.76. In turn, SSGGGYWLLWVE returned an amyloid nucleation score of -0.559 ± 0.76. For SSGTCTSHSLVLIHMGLRYV, the amyloid nucleation score is -0.54 ± 0.54. SSGVRPNNLVSFEFHCLELG had an amyloid nucleation score of -0.28 ± 0.54.

SSIVEDGLTLLNGGNRIDGY came in with an amyloid nucleation score of 0.445 ± 0.31. Consider SSKKCDNRGLMLWVRGILVA, for which the amyloid nucleation score was -0.059 ± 0.24. As for SSLDWWSCSGFLNKQQIKSN, the amyloid nucleation score was 1.08 ± 0.12. SSLHACA returned an amyloid nucleation score of 2.21 ± 0.29. SSLRLDIVRTVHYSQIPEDA displayed an amyloid nucleation score of 1.04 ± 0.33.

Take SSLVGFERGRSMGRGMWVDL: the amyloid nucleation score worked out at 0.041 ± 0.63.

Regarding SSLWVWYLIVD, the amyloid nucleation score worked out at 0.145 ± 0.21. Under SSMIMTGFLYTYYGVIRVVD stands “inactive”; under SSPAACYMR, -1.69 ± 1.1.

SSPKSWNILS registered an amyloid nucleation score of 0.106 ± 0.48.

Take SSPLPQSCERNRVLRTRLGF: the amyloid nucleation score stood at 0.874 ± 0.45.

Turning to SSRYPVIWESFVPNWTNSHF, the amyloid nucleation score was -1.22 ± 1.1. Regarding SSSFFYTHVNHHLVLYDGKA, the amyloid nucleation score was -0.712 ± 1.1. With SSSFHKYRRALWKRKRTWVV the figure was 5.63 ± 0.081; with SSTIGVGRSLFLLMFYRDLI, -1.44 ± 1. In turn, SSVVFCSNPGVYGSSRWTSV showed an amyloid nucleation score of 0.492 ± 0.41. For the substance SSVVISRVPTARICSEEKGP, the amyloid nucleation score result is “inactive”. With SSYLTIPIIRVFLR, the amyloid nucleation score came to 0.126 ± 0.8. SSYRLDAWVKKLFSLSQRKG registered an amyloid nucleation score of -0.052 ± 0.32. STARRRCYFGFGLGQSSAAI yielded an amyloid nucleation score of -0.891 ± 1.1.

STCLTLSMRLLA returned an amyloid nucleation score of 3.84 ± 0.078. The substance STFSYGCSSTGAFCRLLCRM gave an amyloid nucleation score of 0.516 ± 0.64. Take STGMRGKYVTFFCSSVIFRQ: the amyloid nucleation score worked out at 7.2 ± 0.06. As for STGSWTTVKLGREGAILHAL, the amyloid nucleation score is -0.407 ± 0.45. The substance STHSGLSMT registered an amyloid nucleation score of 0.877 ± 0.27.

In turn, STLNSYS gave an amyloid nucleation score of -0.42 ± 0.61. With STMKC the figure was -0.29 ± 0.56.

STMREQRRRAWRKDCDVIKV displayed an amyloid nucleation score of 1.84 ± 0.22. In turn, STPDVVEAWFL gave an amyloid nucleation score of 0.039 ± 0.46. STPPLILQSYV: the amyloid nucleation score is -1.17 ± 0.75. As to STRKCFLMLILTRFGMCC, the amyloid nucleation score worked out at 0.603 ± 0.38.

In turn, STTLIEFSLYIRYYTND yielded an amyloid nucleation score of 4.64 ± 0.084.

Substance SVALSQVLEKVWESVPKELN gave an amyloid nucleation score of 0.62 ± 0.62. Under SVFCRKLTLVAGGDARRDCK stands 0.497 ± 0.57; under SVFLSKDIKGVNQCGGLWLS, 0.296 ± 0.25; under SVFMIYKTVSGGHAYFVVQQ, 4.97 ± 0.072. Turning to SVFRND, the amyloid nucleation score was -0.28 ± 0.3. Under SVIKQNC stands 0.547 ± 0.47. Regarding SVILILSVGLLTIYLSRNG, the amyloid nucleation score was 2.76 ± 0.078. Regarding SVKYFLDSVDVWIDIISAFF, the amyloid nucleation score amounted to 0.256 ± 0.55. In turn, SVLANIMLVVVGNSGKYRSG returned an amyloid nucleation score of 0.627 ± 0.74.

Turning to SVLMGG, the amyloid nucleation score was -0.223 ± 0.54. Turning to SVLMSCD, the amyloid nucleation score is 0.135 ± 0.65.

Turning to SVNMFKFRTDSSFCDLTLCH, the amyloid nucleation score is 0.423 ± 0.8. On to SVNYMAFWKVPTCGLQGGKG, for which the amyloid nucleation score is -0.097 ± 0.76.

SVRMYWAGLLSENKRYNSQS: the amyloid nucleation score came to 3.89 ± 0.12. In the case of SVRVVDDGKTGGVGGTSQR, the amyloid nucleation score stood at 0.767 ± 0.8. In the case of SVSDLLLIYVIESSCSHGFK, the amyloid nucleation score turned out to be 4.72 ± 0.072. As for SVSRSYGEVRLEHTVLETCR, the amyloid nucleation score stood at 0.619 ± 0.64. With SVTGPILICVSLIASFRRSM the figure was 4.27 ± 0.061; with SVVGRYEYIILGTRAPGTSR, 0.272 ± 0.5. SVVSGWWVIIFLYSHGVSIE registered an amyloid nucleation score of 0.093 ± 0.8. SVWWSSNFINPPDFCNM: the amyloid nucleation score is -1.19 ± 1.1. As to SVYPTSGRYYLYRSLIFVGD, the amyloid nucleation score was -0.57 ± 0.78.

Regarding SVYRGASKVSRCRNVKTGR, the amyloid nucleation score was found to be 0.132 ± 0.32. The substance SVYVANYGYPRSGLN registered an amyloid nucleation score of 7.02 ± 0.078. Regarding SWGLPKVVIGGLQMRLEVGA, the amyloid nucleation score amounted to 0.754 ± 0.39. Turning to SWHFKSKHSCVFFRCEYVVS, the amyloid nucleation score is -0.373 ± 1. As for SWHPRKRWNVCERF, the amyloid nucleation score was found to be 0.273 ± 0.49. SWHVVQAVIDVVDREV returned an amyloid nucleation score of 0.967 ± 0.22.

Substance SWKSFKRPGTRCRGQYYYMS came in with an amyloid nucleation score of -0.266 ± 1.
